Experimental data taken from paper PMC7795492, “Protein Sensing Device with Multi-Recognition Ability Composed of Self-Organized Glycopeptide Bundle” (International Journal of Molecular Sciences, 2020).
“Also recorded” adds a separate entry of the source. Where two headings read alike, the source gives them in different places.

Legend:
[1] = tested on: PNA-induced glycopeptide bundle in DPPC bilayer membrane; assay: QCM binding isotherm, PNA-induced glycopeptide bundle; settings: QCM method
Excerpt: (§1) We determined binding amounts of proteins to the induced glycopeptide bundles by QCM measurements. […] The molecular weights of PNA and ConA were 98,000 [27] and […] [33], respectively, assuming that they formed tetramers.
We attempted quantitative analysis of the binding isotherms obtained from the QCM and electrochemical measurements. The curves in Figure 5 and Figure 7 were obtained by curve-fitting the experimental values using the Langmuir binding isotherm. It can be seen that both curves are in good agreement with the experimental values. […] In the electrochemical measurement, the value of ΔI corresponds to the amount of the closed channel in the formed complex between the protein and glycopeptide bundle that acted as an ion channel. ΔImax corresponds to the total channel amount. Therefore, we used ΔI and ΔImax as the binding amount and saturated binding amount, respectively, for the Langmuir binding isotherm.
(§2) For the binding isotherm parameters obtained by the QCM measurements, the saturated binding amount, Wmax, for the protein used to induce the glycopeptide bundle was slightly larger, but a systematic relationship could not be seen in the binding constants, K. However, in the parameters obtained from the electrochemical method, the binding constant, K, to the target protein used to induce the glycopeptide bundle acting as a channel, was higher than that of other proteins, and the ΔImax value corresponding to the saturated binding amount was also remarkably larger. In addition, the selective detection of the target protein to the DPPC bilayer membrane with the target protein-induced glycopeptide bundle was evaluated from the ratio to the saturated binding amounts of other proteins. For example, the value of the selectivity of PNA to ConA, of 1.34, in the QCM method of the PNA-induced sensing membrane was obtained from Wmax, PNA/Wmax, ConA.
We previously reported that heating a vesicle containing a peptide above its gel–liquid crystal transition temperature, Tc, increases the fluidity of the lipid bilayer membrane and allows the peptide to easily diffuse laterally through the membrane. At this time, if a protein that specifically interacts with the sugar chains at the terminal of the glycopeptides is present, the glycopeptides are re-arranged in the membrane, and form specific binding site to the target protein on the glycopeptide bundle. The target protein was added to aqueous solution containing DPPC vesicle with glycopeptides and a spacer peptide in the bilayer membrane. The molar ratio of the added protein to the glycopeptides was 2. The Tc of DPPC is 41 °C [41]. The vesicle solution was incubated at 60 °C above Tc for 15 min to form a glycopeptide bundle. […]

[2] = cited from earlier work
Excerpt: This implies that the proteins with the same sugar binding sites can be selectively recognized if their 3D-structures are different. […] The PNA-induced glycopeptide bundle has a spatial arrangement of galactose corresponded to its binding sites in PNA. Two ... || We used PNA (Wako Pure Chemical Industrials, Ltd., Osaka, Japan) and ConA (CALBIOCHEM, San Diego, CA, USA) as the target proteins.

[3] = tested on: ConA-induced glycopeptide bundle in DPPC bilayer membrane; assay: QCM binding isotherm, ConA-induced glycopeptide bundle; settings: QCM method, Langmuir fit, 25 °C
Excerpt: as §1
We attempted quantitative analysis of the binding isotherms obtained from the QCM and electrochemical measurements. The curves in Figure 5 and Figure 7 were obtained by curve-fitting the experimental values using the Langmuir binding isotherm. It can be seen that both curves are in good agreement with the experimental values. […]
as §2, with “For example, the value of the selectivity of PNA to ConA, of 1.34, in the QCM method of the PNA-induced sensing membrane was obtained from Wmax, PNA/Wmax, ConA.” left out

[4] = tested on: ConA-induced glycopeptide bundle in DPPC bilayer membrane; assay: Electrochemical detection (peak current response, channel blockage), ConA-induced glycopeptide bundle; type: binding; settings: Electrochemical method, Langmuir fit, ±5 mV triangular voltage, 11.24 Hz, 0.1 M HEPES-Tris pH 7.4, 0.1 M KCl
Excerpt: (§3) We attempted to detect the protein using the sensing membrane using the electrochemical method. From the simulation, the value of the increase in the current before and after protein addition at the peak voltage, ΔI, was proportional to the fraction of the closed channel that is protein bound glycopeptide bundle (Figure A4).
The curves in Figure 5 and Figure 7 were obtained by curve-fitting the experimental values using the Langmuir binding isotherm. […] In the electrochemical measurement, the value of ΔI corresponds to the amount of the closed channel in the formed complex between the protein and glycopeptide bundle that acted as an ion channel. ΔImax corresponds to the total channel amount. Therefore, we used ΔI and ΔImax as the binding amount and saturated binding amount, respectively, for the Langmuir binding isotherm [36].
At this time, if a protein that specifically interacts with the sugar chains at the terminal of the glycopeptides is present, the glycopeptides are re-arranged in the membrane, and form specific binding site to the target protein on the glycopeptide bundle. The target protein was added to aqueous solution containing DPPC vesicle with glycopeptides and a spacer peptide in the bilayer membrane. The molar ratio of the added protein to the glycopeptides was 2. […] The vesicle solution was incubated at 60 °C above Tc for 15 min to form a glycopeptide bundle. […]

[5] = tested on: PNA-induced glycopeptide bundle in DPPC bilayer membrane; type: binding; settings: Electrochemical method
Excerpt: The response current waves were very similar to those derived according to Equation (7) based on the equivalent circuit in Figure A2. The equivalent circuit was a parallel circuit consisting of a capacitor (DPPC bilayer membrane; Cmemb), a resistor (glycopeptide bundle not bound to the target protein as an open channel; Ropen), the serial circuit of a capacitor (bound target protein on glycopeptide bundle; Cprotein), and a resistor (target protein bound to the glycopeptide bundle as a closed channel; Rclose). First, we verified whether the electrochemical properties of the DPPC bilayer membrane with a target protein-induced glycopeptide bundle could be expressed by the proposed equivalent circuit. […] The sensing membrane was used containing the PNA-induced glycopeptide bundle, and the added protein was PNA. In the simulation, the resistances, Ropen = 6.00 × 10^4 Ω and Rclose = 1.73 × 10^4 Ω, and capacitances, Cmemb = 1.00 × 10^−6 F and Cprotein = 3.00 × 10^−6 F, were held constant. Furthermore, x (=ΔI/ΔImax) was calculated from the ratio of the current changes, ΔI (Figure A4), between before and after the protein was added at peak voltage applied, and the saturated current changes, ΔImax (Table 2); this is described below.
as §3
We attempted quantitative analysis of the binding isotherms obtained from the QCM and electrochemical measurements. The curves in Figure 5 and Figure 7 were obtained by curve-fitting the experimental values using the Langmuir binding isotherm. […] In the electrochemical measurement, the value of ΔI corresponds to the amount of the closed channel in the formed complex between the protein and glycopeptide bundle that acted as an ion channel. ΔImax corresponds to the total channel amount. Therefore, we used ΔI and ΔImax as the binding amount and saturated binding amount, respectively, for the Langmuir binding isotherm [36].

[6] = PNA-induced glycopeptide bundle in DPPC bilayer, Langmuir fit, 25 °C
[7] = PNA-induced bundle, ratio of ΔImax
[8] = PNA-induced glycopeptide bundle in DPPC bilayer, Langmuir fit, ±5 mV triangular voltage, 11.24 Hz, 0.1 M HEPES-Tris pH 7.4, 0.1 M KCl

B1: PNA: peanut lectin with specific binding site for galactose (protein, UniProt P02872 24-273, looked up)
Galactose-binding lectin: AETVSFNFNSFSEGNPAINFQGDVTVLSNGNIQLTNLNKVNSVGRVLYAMPVRIWSSATGNVASFLTSFSFEMKDIKDYDPADGIIFFIAPEDTQIPAGSIGGGTLGVSDTKGAGHFVGVEFDTYSNSEYNDPPTDHVGIDVNSVDSVKTVPWNSVSGAVVKVTVIYDSSTKTLSVAVTNDNGDITTIAQVVDLKAKLPERVKFGFSASGSLGGRQIHLIRSWSFTSTLITTTRRSIDNNEKKIMNMASA
Selectivity of PNA to BSA ([1]; PNA-induced bundle, ratio of Wmax): 2.47 | Binding preference in QCM (in words) ([1]; PNA-induced glycopeptide bundle): preferentially bound | Binding constant, K [1, 6]: 8.2e+08 M⁻¹ | Saturated binding amount, Wmax [1, 6]: 0.47 ng | Sugar binding specificity [2]: specific binding sites for galactose | Binding constant, K [3]: 9.5e+08 M⁻¹ | Saturated binding amount, Wmax [3]: 0.21 ng | Binding constant, K [4]: 1.1e+09 M⁻¹ | Saturated current change, ΔImax [4]: 0.035 μA | Selectivity of PNA to BSA [5, 7]: 17.8 | Selectivity of PNA to ConA [5, 7]: 9.53 | Binding constant, K [5, 8]: 2.1e+09 M⁻¹ | Saturated current change, ΔImax [5, 8]: 0.41 μA | Current response / recognition (in words) ([5]; PNA-induced sensing membrane): specific response; also recorded: very large current responses
